Measured values published in IntAct's records for PubMed 18723617.

B1: Motility protein B (Salmonella typhimurium), P55892 (parent)
chain: MKNQAHPIVVVKRRRHKPHGGGAHGSWKIAYADFMTAMMAFFLVMWLISISSPKELIQIAEYFRTPLATAVTGGNRIANSESPIPGGGDDYTQQQGEVEKQPNIDELKKRMEQSRLNKLRGDLDQLIESDPKLRALRPHLKIDLVQEGLRIQIIDSQNRPMFKTGSAEVEPYMRDILRAIAPVLNGIPNRISLAGHTDDFPYANGEKGYSNWELSADRANASRRELVAGGLDNGKVLRVVGMAATMRLSDRGPDDAINRRISLLVLNKQAEQAILHENAESQNEPVSVLQQPAAAPPASVPTSPKAEPR
partner: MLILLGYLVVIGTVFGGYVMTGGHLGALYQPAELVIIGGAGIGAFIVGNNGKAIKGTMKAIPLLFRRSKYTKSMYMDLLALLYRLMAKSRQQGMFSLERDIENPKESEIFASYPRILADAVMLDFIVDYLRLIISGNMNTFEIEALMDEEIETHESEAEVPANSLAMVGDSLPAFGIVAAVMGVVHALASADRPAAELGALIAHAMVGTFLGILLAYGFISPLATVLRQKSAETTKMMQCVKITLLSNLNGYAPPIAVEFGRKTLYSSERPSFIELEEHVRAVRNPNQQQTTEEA

Variants of: B1
Conditions: with mota_salty motA

Question: Which “effect of a mutation on the interaction” value does the source give for D33E here?
Answer: Its value is “decreasing interaction strength”.
